# B1: BAV86562.1: Rothia aeria protein annotated glycerol-3-phosphate ABC transporter, belongs to the subtilisin family (peptidase S8) (protein, listed as Rothia aeria)
# chain: MAITAGLPATAAPAGDPDTPVAQDIARNSREHAVLSDSMKKAEGNIPVFVQFKGKGAYEQTQSPAVLANKQAPTNKQAEVQAIKTQVQSQAQAAAQSTGAKTLYTTHNIMRGVALQGDAAQIRALANNPEVERITPIVPKKKQNAGSVVDTGAAENWARENSGYTGKDVKIAVVDSGIDYTHADFGGPGTVEAFNKATKLTEMPAADSGLYDAKKYIGGYDLVGDSYDGTNQTAPDNNPIDCSAGGHGTHVAGTAAGYGVNQDGTTFRGDYSKLTAEQLNQMKIGPGAAPEAQLYSFRVFGCTGTTGVVVQALDRTLDPNGDGDFSDRANIVNLSIGGEFSPPDDADAYAVESLNRQGVLAVVSAGNATDYYGRGDTYSDSGQPANAVSALTVANSIGSSYAVDSMEIQAPANVAGKVPGDYTVSYTYTGAKPEALTGTVVTPSESNKFGCEAFSAEDAAKIKDKWVFLEWANADGSLPCGSKVRFDNVEKAGGKGVVLSSEEEKPALPIGGNESIPGFRVAKSASAKVREAAANGELKVRLGTDLKESLRVPSNKKDQLTASSARGYHGTYGYTKPDVAAPGNNISSARVGTGTDGISYTGTSMSAPFAAGVAAQVLQANQSYGPTQLKAAIMNSANHDVRTADGNVYAVDRVGSGRIDAKAAAETKVLLYNADRPAQVSQTFGVLEYAVNEGKQTLTREMTVENFDSHTHTYNISYAGSTDMPGVEFSLPSNITVNPGEKKNFTVTITIDPAAMEKTMDPAMEKTHNSVDPYGDGTELVPEQYRQFIASESGRILLTEGAATLRAPIHAAPKPASAMKVEGSSVEIPAGEHQANLKLTGTELNQRGYKSLLGAFEHGASIERTSPVKLDVSSNAKANMQHVGAASTAPALKASGGNPNDGLLAFGISTWANWDVVSTENTFTVNIDTDGNNRADYMLVTDRAKGIDFPIVRLYGYKNGNLEQIAYYPLNNAWGDTDTNMMDSNALVMAVPLKDLGLSAEKTKDIKYSVSATTQYAWTNVSETGWINYRPFDPKLWFSGTAATVPGFFADAPSSELVAHRAEGATDVKALFLHMHNTTGDLSGLNGAAGNRAQVLEVTEQQQLDPAPSRFTDVPAENQFYAEINWLAQRRITTGYPDGTFRPGENVERGAMAAYFYRLAGTPQFTAPDNPTFSDVPKSHPFYKEIEWMAARGITTGYGDGTFRPSASVNRDAMAAFFYRYANSPQFAAPAASPFKDVPANSQFYKEIAWLAEQGITKGWDDGTYRPGEPIHRDAMAAFLYRYSDKVLK
# B2: Eglin C: an effective inhibitor of B. licheniformis subtilisin A (protein)
# chain: TEFGSELKSFPEVVGKTVDQAREYFTLHYPQYDVYFLPEGSPVTLDLRYNRVRVFYNPGTNVVNHVPHVG
# B3: KGJ00122.1: peptidase S8, subtilisin from Rothia dentocariosa (protein, listed as Rothia dentocariosa)
# chain: MPKNTPIRGLSRACLSATLGVTMAITAGLPATAAPAGDPDTPVAQDIARNSREHAVLSDSMKKAEGNIPVFVQFKGKGAYEQTQSPAVLANKQAPINKQAEVQAIKTQVQSQAQAAAQSTGAKTLYTTHNIMRGVALQGDAAQIRALANNPEVERITPIVPKKKQNAGSVVDTGAAENWARENSGYTGKDVKIAVVDSGIDYTHSDFGGPGTVEAFNKATKLTEMPAADSGLYDAKKYIGGYDLVGDSYDGTNQTTPDNNPIDCSAGGHGTHVAGTAAGYGVNQDGTTFRGDYSKLTAEQLNQMKIGPGAAPEAQLYSFRVFGCTGTTAVVVQALDRTLDPNGDGDFSDRANIVNLSIGGEFSPPDDADAYAVESLNRQGVLAVVSAGNATDYYGRGDTYSDSGQPANAVSALTVANSIGSSYAVDSMEIQAPANVAGKVPGDYTVSYTYTGAKPEALTGTVVTPSESNKFGCEAFSAEDAAKIKDKWVFIEWANADGSLPCGSKVRFDNVEKAGGKGVVLSSEEEKPALPIGGNESIPGFRVAKSASAKVREAAATGELKVRLGADLKESLRVPSNKKDQLTASSARGYHGTYGYTKPDVAAPGNNISSARVGTGTGGISYTGTSMSAPFAAGVAAQVLQANQSYGPTQLKAAIMNSANHDVRTADGNVYAVDRVGSGRIDAKAAAETKVLLYNADRPAQVSQTFGVLEYAVNEGKQTLTREMTVENFDSHTHTYNISYAGSTDMPGVEFSLPSNITVNPGEKKNFTVTITIDPAAMEKTMDPAMEKTHNSVDPYGDGTELVPEQYRQFIASESGRILLTEGAATLRAPIHAAPKPASAMKVEGSSVEIPAGEHQANLKLTGTELNQRGYKSLLGAFEHGASIERTSPVKLDVSSNAKANMQHVGAASTAPALKASGGNPNDGLLAFGISTWANWDVVSTENTFTVNIDTDGNNRADYMLVTDRAKGIDFPIVRLYGYKNGNLEQIAYYPLNNAWGDTDTNMMDSNALVMAVPLKDLGLSAEKTKDIKYSVSATTQYAWTNVSETGWINYRPFDPKLWFSGTAATVPGFFADAPSSELVAHRAEGATDVKALFLHMHNTTGDLSGLNGAAGNRAQVLEVTEQQQLDPAPSRFTDVPAENQFYAEINWLAQRRITTGYPDGTFRPGENVERGAMAAYFYRLAGTPQFTAPDNPTFSDVPKSHPFYKEIEWMAARGITTGYGDGTFRPSDSVNRDAMAAFFYRYANSPQFAAPAASPFKDVPANSQFYKEIAWLAEQGITKGWDDGTYRPGEPIHRDAMAAFLYRYSDKVLK
# How the values were obtained:
# [1] = literature reference; cited from earlier work
# [2] = target: T1, subtilisin A (Bacillus licheniformis, UniProt P00780); test: Inhibition of subtilisin A by Eglin C; assay type: biochemical; conditions: Eglin C 1.2 μM; Suc-AAPF-pNA
# T1 construct: purchased Sigma
# Protocol: (§1) Hydrolysis of paranitroanilide-derivatized substrates—Paranitroanilide (pNA)-derivatized tripeptide substrates were chemically synthesized at >90% purity (21st Century Biochemicals, Marlborough, Mass.). The substrates obtained were Z-YPQ-pNA, Z-QQP-pNA, Z-LPY-pNA, Z-PFP-pNA, Z-PPF-pNA, where Z=benzyloxycarbonyl, Y=tyrosine, P=proline, Q=glutamine, L=leucine, and F=phenylalanine Suc-AAPF-pNA (SEQ ID NO: 4) was obtained from Sigma, where Suc=N-succinyl and A=alanine. The peptides were dissolved in 75-100% DMSO at 10 mM, and were used at a final concentration of 200 μM in 50 mM TrisHCl pH 8.0. Purified Rothia enzyme or subtilisin A from Bacillus licheniformis (Sigma) were tested at final concentrations of 1 μg/ml. Some experiments were conducted in the presence of inhibitors 4-(2-Aminoethyl) benzenesulfonyl fluoride (AEBSF), Aprotinin, E-64, EDTA, phenylmethanesulfonyl fluoride (PMSF) and Eglin C, which were tested at final concentrations of 10 mM, 0.08 mM, 0.1 mM, 1.5 mM, 1 mM, and 0.06-1.2 μM, respectively. Enzymes were preincubated with the inhibitors for 20 min before adding Suc-AAPF-pNA (SEQ ID NO: 4). Substrate hydrolysis was monitored for 10 h at 405 nm using a Genios microtiter plate reader (Tecan, Männedorf, Switzerland) in the kinetic mode at 37° C.
# [3] = tested on: R. mucilaginosa enzyme preparation (Rmep); test: Inhibitor profile of Rmep (Suc-AAPF-pNA hydrolysis); assay type: biochemical, Rothia mucilaginosa; conditions: Eglin C 1.2 μM; Suc-AAPF-pNA
# Protocol: Inhibitors AEBSF, Aprotinin, E-64, EDTA, PMSF and Eglin C were tested at final concentrations of 10 mM, 0.08 mM, 0.1 mM, 1.5 mM, 1 mM, and 0.06 μM, respectively. Rmep was added at a final concentration of 5.7 μg/ml. The percent inhibition was determined from the ratio of the initial velocities of hydrolysis of Suc-AAPF-pNA (SEQ ID NO: 4) in the absence and presence of inhibitor.
# as §1
# [4] = tested on: casein; test: Casein zymography of R. aeria cell proteins; assay type: biochemical; conditions: excised bands 1-4, R. aeria cells, 1% casein
# Protocol: Bands 1-4 were excised and subjected to mass spectrometric analysis of the amino acid sequences and identification of the protein. The protein was identified as BAV86562.1 from Rothia aeria.
# SDS-PAGE and casein zymography—The four cell pellets were resuspended each in 200 μl zymogram sample buffer^2. To separate the proteins, the samples were applied to a non-reducing (no DTT or β-mercaptoethanol-containing) 6% SDS-PAGE gel of 16 cm×20 cm×0.15 cm, using a protean II xi cell system (Bio-Rad, Hercules, Calif.). The composition of this gel was the same as that of previously published 6% gliadin zymogram gels but without incorporation of gliadin^2. After electrophoresis at a constant voltage of 120V at 4° C., the gel was divided in two halves (“A-gel” and “B-gel”). One-half (“A-gel”) was stained with 0.1% Coomassie Brilliant Blue in 40% (v/v) methanol/10% (v/v) acetic acid. The other half (“B-gel”) was developed as a zymogram gel^3. (See FIGS. 12A and 12B). For this, the B-gel was washed twice for 30 min in buffer containing 2.5% Triton X-100 (renaturing buffer; Life Technologies, Carlsbad, Calif.), followed by washing twice for 1 h in buffer containing 20 mM Tris-HCl, pH 7.5 (developing buffer; Life Technologies, Carlsbad, Calif.). The B-gel was then incubated in developing buffer supplemented with 1% casein (Sigma, St. Louis, Mo.) at 37° C. for 1.5 h. […]
# T1 sequence (P00780 106-379): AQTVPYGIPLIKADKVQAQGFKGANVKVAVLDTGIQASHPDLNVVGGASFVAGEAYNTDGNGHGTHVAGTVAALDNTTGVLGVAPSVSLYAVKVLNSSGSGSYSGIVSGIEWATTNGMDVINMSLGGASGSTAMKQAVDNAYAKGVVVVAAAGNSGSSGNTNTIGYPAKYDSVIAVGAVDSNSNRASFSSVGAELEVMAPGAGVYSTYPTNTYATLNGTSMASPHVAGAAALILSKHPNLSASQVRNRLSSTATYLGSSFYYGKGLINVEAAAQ
molecule,measurement,setting,value
B1,pH values down to which activity is retained,[1],≥ 3.0
B2,inhibition of B. licheniformis subtilisin A by Eglin C,[2],effective inhibitor
same,inhibition of Rmep by high concentrations of Eglin C,[3],only partly inhibited
B3,activity in the casein degradation assay (zymogram),[4],gluten-degrading properties

# — patent US11124785B2, “Rothia subtilisins, S8A family proteases, as therapeutic enzymes for application in gluten intolerance disorders” (TRUSTEES OF BOSTON UNIVERSITY, priority 2016, dated 2021)
